Among the data in publication PMC10397247 are interaction score values, retold here.

Experiment in all cases: two-hybrid library CCNG1;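 also: natural log of median RNA to DNA barcode read ratio; higher means stronger binding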
One assay concerns the target T1, 4H3632-bH.
T1 chain: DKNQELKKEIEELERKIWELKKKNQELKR

For a further assay, the target named is T2, 4H496-bH.
T2 chain: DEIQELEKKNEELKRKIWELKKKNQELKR

The target in the next assay is T3, 4H4001-bN.
T3 chain: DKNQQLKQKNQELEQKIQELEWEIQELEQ

The next assay addresses T4, 4H342-bN.
T4 chain: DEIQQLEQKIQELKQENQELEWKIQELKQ

A further assay addresses T5, 4H3632-bN.
T5 chain: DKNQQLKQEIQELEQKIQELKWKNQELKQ

The target of another assay is T6, 4H48-bN.
T6 chain: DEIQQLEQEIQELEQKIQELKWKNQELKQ

The target in a further assay is T7, 4H496-bN.
T7 chain: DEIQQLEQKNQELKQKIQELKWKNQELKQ

The target of the next assay is T8, 4H491-bN.
T8 chain: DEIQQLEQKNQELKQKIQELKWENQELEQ

Another assay addresses T9, 4H370-bH.
T9 chain: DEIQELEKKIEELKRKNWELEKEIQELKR

The target of another assay is T10, 4H3189-bH.
T10 chain: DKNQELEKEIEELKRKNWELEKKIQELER

The target of the next assay is T11, 4H4001-bH.
T11 chain: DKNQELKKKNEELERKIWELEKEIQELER

The next assay addresses T12, 4H883-bH.
T12 chain: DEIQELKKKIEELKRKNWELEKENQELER

A further assay deals with T13, 4H2667-bH.
T13 chain: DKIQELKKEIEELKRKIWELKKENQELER

For a further assay, the target named is T14, 4H687-bH.
T14 chain: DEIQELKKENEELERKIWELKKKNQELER

A further assay deals with T15, 4H607-bH.
T15 chain: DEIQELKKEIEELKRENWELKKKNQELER

A further assay deals with T16, 4H462-bH.
T16 chain: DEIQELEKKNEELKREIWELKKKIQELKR

Another assay concerns the target T17, 4H2697-bH.
T17 chain: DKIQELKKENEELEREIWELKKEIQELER

Another assay concerns the target T18, 4H2610-bH.
T18 chain: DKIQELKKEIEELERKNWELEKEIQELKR

The target in the next assay is T19, 4H3782-bH.
T19 chain: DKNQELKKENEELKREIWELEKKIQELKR

The target of another assay is T20, 4H797-bH.
T20 chain: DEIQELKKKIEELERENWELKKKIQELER

The target in another assay is T21, 4H3606-bH.
T21 chain: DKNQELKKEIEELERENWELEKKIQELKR

In the next assay the target is T22, 4H3843-bH.
T22 chain: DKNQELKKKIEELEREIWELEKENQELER

The target of another assay is T23, 4H2618-bH.
T23 chain: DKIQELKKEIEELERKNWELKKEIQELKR

The next assay concerns the target T24, 4H331-bH.
T24 chain: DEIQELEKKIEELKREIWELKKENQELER

The target of another assay is T25, 4H918-bH.
T25 chain: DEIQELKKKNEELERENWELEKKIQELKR

The next assay has as its target T26, 4H568-bH.
T26 chain: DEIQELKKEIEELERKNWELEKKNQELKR

A further assay deals with T27, 4H72-bH.
T27 chain: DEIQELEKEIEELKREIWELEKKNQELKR

Another assay has as its target T28, 4H953-bH.
T28 chain: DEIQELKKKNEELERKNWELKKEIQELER

A further assay has as its target T29, 4H3961-bH.
T29 chain: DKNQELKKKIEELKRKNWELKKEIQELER

A further assay addresses T30, 4H363-bH.
T30 chain: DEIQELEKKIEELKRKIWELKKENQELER

Another assay addresses T31, 4H3907-bH.
T31 chain: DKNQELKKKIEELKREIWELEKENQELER

The target in another assay is T32, 4H470-bH.
T32 chain: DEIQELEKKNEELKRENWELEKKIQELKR

Another assay has as its target T33, 4H3112-bH.
T33 chain: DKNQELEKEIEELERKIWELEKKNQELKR

The target in a further assay is T34, 4H754-bH.
T34 chain: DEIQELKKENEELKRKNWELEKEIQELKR

A further assay has as its target T35, 4H2576-bH.
T35 chain: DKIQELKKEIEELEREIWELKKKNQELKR

The next assay deals with T36, 4H918-bA.
T36 chain: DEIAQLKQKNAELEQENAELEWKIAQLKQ

The target in another assay is T37, 4H3354-bH.
T37 chain: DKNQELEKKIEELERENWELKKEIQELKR

The next assay has as its target T38, 4H3427-bH.
T38 chain: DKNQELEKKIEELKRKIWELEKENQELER

A further assay addresses T39, 4H338-bH.
T39 chain: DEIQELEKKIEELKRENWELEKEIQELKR

For a further assay, the target named is T40, 4H2729-bH.
T40 chain: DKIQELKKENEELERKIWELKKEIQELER

For another assay, the target named is T41, 4H3185-bH.
T41 chain: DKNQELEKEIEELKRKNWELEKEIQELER

Another assay concerns the target T42, 4H454-bH.
T42 chain: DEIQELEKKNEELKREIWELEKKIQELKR

The target of another assay is T43, 4H908-bH.
T43 chain: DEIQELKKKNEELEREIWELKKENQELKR

Another assay has as its target T44, 4H3855-bH.
T44 chain: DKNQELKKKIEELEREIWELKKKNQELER

In the next assay the target is T45, 4H717-bH.
T45 chain: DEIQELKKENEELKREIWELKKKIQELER

The next assay concerns the target T46, 4H953-bA.
T46 chain: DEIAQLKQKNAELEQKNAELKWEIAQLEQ

A further assay deals with T47, 4H967-bH.
T47 chain: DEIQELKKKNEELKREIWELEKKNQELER

Regarding DKNQELKKEIEELERKIWELKKKNQELKR [4H3632-bH], the interaction score in the assay with 4H3632-bH was -0.234; with 4H496-bH, -2.56.
With DEIQQLEQKIQELKQENQELEWKIQELKQ [4H342-bN], the interaction score with 4H4001-bN is -0.0564; with 4H342-bN it was 1.33; with 4H3632-bN, 0.807; with 4H48-bN, -1.99; with 4H496-bN it was 1.56; with 4H491-bN it was 1.47.
As for DKIQELKKEIEELERKNWELEKEIQELKR [4H2610-bH], the interaction score with 4H370-bH was 1.24; with 4H3189-bH it was 0.354; with 4H4001-bH, 0.47; in the assay with 4H883-bH, 1.68; with 4H2667-bH, -0.792; in the assay with 4H687-bH, 0.522. The interaction score in the assay with 4H607-bH was -0.288; with 4H462-bH it was 1.13; with 4H2697-bH, -0.13; in the assay with 4H2610-bH, 1.39; with 4H3782-bH, -0.423; in the assay with 4H797-bH, -0.388. Also, the interaction score is 0.997 with 4H3606-bH; 0.428 in the assay with 4H3843-bH; -2.22 with 4H2618-bH; -0.139 in the assay with 4H331-bH; -0.153 with 4H918-bH; 1.22 with 4H568-bH. In addition, the figures for the interaction score with 4H72-bH and in the assay with 4H953-bH were 0.879 and -1.02, respectively.
Take DEIQELEKKIEELKRKIWELKKENQELER [4H363-bH]: the interaction score in the assay with 4H3961-bH is 0.532; with 4H363-bH, 1.36; with 4H3907-bH, 1.26; with 4H470-bH, 0.465.
For the molecule DKIQELKKEIEELEREIWELKKKNQELKR [4H2576-bH], the interaction score with 4H370-bH was 1.62; with 4H3189-bH, 0.969; in the assay with 4H4001-bH, 1.28; in the assay with 4H883-bH it was -0.465; in the assay with 4H3112-bH, 0.913; with 4H2667-bH, 0.467. Moreover, the interaction score with 4H687-bH was -0.475; with 4H754-bH, -2.65; in the assay with 4H2576-bH it was 0.71; with 4H918-bA, -0.341; in the assay with 4H607-bH, -1.37; with 4H3354-bH, -0.952. Further, the interaction score with 4H3427-bH was 1.73; in the assay with 4H338-bH, 0.794; with 4H462-bH, 0.615; with 4H2697-bH, -0.201; in the assay with 4H2610-bH, -0.788; with 4H3782-bH it was -0.128. The interaction score in the assay with 4H2729-bH is 1.93; in the assay with 4H797-bH, -0.961; in the assay with 4H3185-bH, 0.137; in the assay with 4H454-bH, 1.67; with 4H3606-bH it was -2.37; in the assay with 4H3843-bH, 1.11. Further, the interaction score is -1.34 with 4H908-bH; 1.01 with 4H2618-bH; 1.97 in the assay with 4H331-bH; -0.721 in the assay with 4H918-bH; 0.102 with 4H568-bH; 0.621 with 4H72-bH. For the same molecule, the interaction score is 0.305 with 4H3855-bH; -0.152 with 4H953-bH; -1.86 in the assay with 4H717-bH; -1.63 in the assay with 4H953-bA; -3.3 with 4H967-bH.
